34 molecules from patent US20180258163A1 (Chugai, published 2018) can be followed below.

Numbering of substitutions follows the chain as printed. Names may count otherwise.

First the molecules themselves.
T1: soluble human FcγRIIb (human, UniProt P31994 43-217, limits assumed)
T1 construct: soluble His-tagged form; also called hFcγRIIb
T1 sequence (looked up): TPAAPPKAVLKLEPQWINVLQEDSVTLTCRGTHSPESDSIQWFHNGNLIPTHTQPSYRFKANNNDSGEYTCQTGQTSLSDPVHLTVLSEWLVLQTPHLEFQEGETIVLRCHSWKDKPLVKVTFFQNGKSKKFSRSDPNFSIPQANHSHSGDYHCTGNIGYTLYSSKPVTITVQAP

B1: Ab1H-P927/Ab1L (antibody, human IgG1, kappa, name in EU numbering)
heavy: QVQLVESGGGLVQPGGSLRLSCAASGFTLSNHDMTWVRQAPGKGLEYVSIINTYGNHWYANWASGRFTISRDNSKNTVYLQIDSLRAEDTATYYCARETHHGSSGIDHWGQGTLVTVSSASTKGPSVFPLAPSSKSTSGGTAALGCLVKDYFPEPVTVSWNSGALTSGVHTFPAVLQSSGLYSLSSVVTVPSSSLGTQTYICNVNHKPSNTKVDKKVEPKSCDKTHTCPPCPAPELLGGDSVFLFPPKPKDTLMISRTPEVTCVVVDVSHEDPEVKFNWYVDGVEVHNAKTKPRERQYNATYRVVSVLTVLHQDWLNGKEYKCKVSNKALPAPIEKTISKAKGQPREPQVYTLPPSREEMTKNQVSLTCLVKGFYPSDIAVEWESNGQPENNYKTTPPVLDSDGSFFLYSKLTVDKSRWQQGNVFSCSVMHEALHNHYTQKSLSLSP
light: DIQMTQSPSSVSASVGDRVTITCQASESIYSGLAWYQQKPGQPPKLLIYDHSTLASGVPSRFSGSGSGTEYALTISSLQPEDFATYYCQHADYAHHSDNVFGGGTKVEIKRTVAAPSVFIFPPSDEQLKSGTASVVCLLNNFYPREAKVQWKVDNALQSGNSQESVTEQDSKDSTYSLSSTLTLSKADYEKHKVYACEVTHQGLSSPVTKSFNRGEC
notes: copies: 2 + 2
B2: Ab1H-P934/Ab1L (antibody, human IgG1, kappa, name in EU numbering)
heavy: B1 heavy with V284R, R296E
light: B1 light
notes: copies: 2 + 2
B3: Ab1H-P938/Ab1L (antibody, human IgG1, kappa, name in EU numbering)
heavy: B1 heavy with P273R, R296E
light: B1 light
notes: copies: 2 + 2
B4: Ab1H-P929/Ab1L (antibody, human IgG1, kappa, name in EU numbering)
heavy: B1 heavy with P293R, R296E
light: B1 light
notes: copies: 2 + 2
B5: Ab1H-P939/Ab1L (antibody, human IgG1, kappa, name in EU numbering)
heavy: B1 heavy with D272R, R296E
light: B1 light
notes: copies: 2 + 2
B6: Ab1H-P941/Ab1L (antibody, human IgG1, kappa, name in EU numbering)
heavy: B1 heavy with H270R, R296E
light: B1 light
notes: copies: 2 + 2
B7: Ab1H-P932/Ab1L (antibody, human IgG1, kappa, name in EU numbering)
heavy: B1 heavy with H287R, R296E
light: B1 light
notes: copies: 2 + 2
B8: Ab1H-P940/Ab1L (antibody, human IgG1, kappa, name in EU numbering)
heavy: B1 heavy with E271R, R296E
light: B1 light
notes: copies: 2 + 2
B9: Ab1H-P937/Ab1L (antibody, human IgG1, kappa, name in EU numbering)
heavy: B1 heavy with E274R, R296E
light: B1 light
notes: copies: 2 + 2
B10: Ab1H-P930/Ab1L (antibody, human IgG1, kappa, name in EU numbering)
heavy: B1 heavy with A289R, R296E
light: B1 light
notes: copies: 2 + 2
B11: Ab1H-P931/Ab1L (antibody, human IgG1, kappa, name in EU numbering)
heavy: B1 heavy with N288R, R296E
light: B1 light
notes: copies: 2 + 2
B12: Ab1H-P935/Ab1L (antibody, human IgG1, kappa, name in EU numbering)
heavy: B1 heavy with G283R, R296E
light: B1 light
notes: copies: 2 + 2
B13: Ab1H-P928/Ab1L (antibody, human IgG1, kappa, name in EU numbering)
heavy: B1 heavy with E295R, R296E
light: B1 light
notes: copies: 2 + 2
B14: Ab1H/Ab1L009 (antibody, human IgG1, kappa)
heavy: not shown
light: B1 light with L46R, Y49K
notes: copies: 2 + 2
B15: Ab1H/Ab1L017 (antibody, human IgG1, kappa)
heavy: not shown
light: B1 light with Q24R, E27R, G41R, Q42K
notes: copies: 2 + 2
B16: Ab1H/Ab1L015 (antibody, human IgG1, kappa)
heavy: not shown
light: B1 light with G16K, Q24R, E27R
notes: copies: 2 + 2
B17: Ab1H/Ab1L007 (antibody, human IgG1, kappa)
heavy: not shown
light: B1 light with Q37R
notes: copies: 2 + 2
B18: Ab1H/Ab1L006 (antibody, human IgG1, kappa)
heavy: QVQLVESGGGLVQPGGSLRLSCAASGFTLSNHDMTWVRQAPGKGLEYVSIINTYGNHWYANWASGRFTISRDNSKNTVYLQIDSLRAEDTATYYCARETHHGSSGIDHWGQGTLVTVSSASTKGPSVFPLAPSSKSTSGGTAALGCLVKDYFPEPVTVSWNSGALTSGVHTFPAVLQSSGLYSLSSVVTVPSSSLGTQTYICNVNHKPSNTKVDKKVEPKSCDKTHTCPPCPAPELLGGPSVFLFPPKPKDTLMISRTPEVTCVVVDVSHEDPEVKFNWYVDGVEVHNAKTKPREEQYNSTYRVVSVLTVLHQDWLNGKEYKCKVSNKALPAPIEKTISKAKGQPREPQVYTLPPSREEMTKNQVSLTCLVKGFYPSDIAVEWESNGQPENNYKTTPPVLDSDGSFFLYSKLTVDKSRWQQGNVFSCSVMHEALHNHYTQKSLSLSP
light: B1 light with A25R, S26R
notes: copies: 2 + 2
B19: Ab1H/Ab1L002 (antibody, human IgG1, kappa)
heavy: not shown
light: B1 light with Q24R, E27Q
notes: copies: 2 + 2
B20: Ab1H/Ab1L019 (antibody, human IgG1, kappa)
heavy: not shown
light: B1 light with Q24R, E27R, S52R, S56R
notes: copies: 2 + 2
B21: Ab1H/Ab1L020 (antibody, human IgG1, kappa)
heavy: not shown
light: B1 light with Q24R, E27R, S52K, S56K
notes: copies: 2 + 2
B22: Ab1H/Ab1L001 (antibody, human IgG1, kappa)
heavy: not shown
light: B1 light with G16K
notes: light chain = Ab1L with G16K (Kabat); also called Ab1L001T; copies: 2 + 2
B23: Ab1H/Ab1L021 (antibody, human IgG1, kappa)
heavy: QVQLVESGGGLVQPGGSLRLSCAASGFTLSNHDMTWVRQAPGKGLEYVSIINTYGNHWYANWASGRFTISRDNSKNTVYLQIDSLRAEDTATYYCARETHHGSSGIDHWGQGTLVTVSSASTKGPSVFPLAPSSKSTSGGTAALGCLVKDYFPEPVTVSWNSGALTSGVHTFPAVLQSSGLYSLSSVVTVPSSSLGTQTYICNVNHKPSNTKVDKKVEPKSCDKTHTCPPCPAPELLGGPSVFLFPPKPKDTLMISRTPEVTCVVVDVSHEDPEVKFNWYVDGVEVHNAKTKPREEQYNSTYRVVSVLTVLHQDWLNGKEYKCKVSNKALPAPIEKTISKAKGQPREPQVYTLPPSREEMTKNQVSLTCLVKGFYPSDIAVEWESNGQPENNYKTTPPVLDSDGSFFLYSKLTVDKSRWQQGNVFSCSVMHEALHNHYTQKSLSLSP
light: B1 light with Q24R, E27R, S65R, T69R
notes: '169R' read as T69R; copies: 2 + 2
B24: Ab1H/Ab1L013 (antibody, human IgG1, kappa)
heavy: not shown
light: B1 light with T74K, S77R
notes: copies: 2 + 2
B25: Ab1H/Ab1L008 (antibody, human IgG1, kappa)
heavy: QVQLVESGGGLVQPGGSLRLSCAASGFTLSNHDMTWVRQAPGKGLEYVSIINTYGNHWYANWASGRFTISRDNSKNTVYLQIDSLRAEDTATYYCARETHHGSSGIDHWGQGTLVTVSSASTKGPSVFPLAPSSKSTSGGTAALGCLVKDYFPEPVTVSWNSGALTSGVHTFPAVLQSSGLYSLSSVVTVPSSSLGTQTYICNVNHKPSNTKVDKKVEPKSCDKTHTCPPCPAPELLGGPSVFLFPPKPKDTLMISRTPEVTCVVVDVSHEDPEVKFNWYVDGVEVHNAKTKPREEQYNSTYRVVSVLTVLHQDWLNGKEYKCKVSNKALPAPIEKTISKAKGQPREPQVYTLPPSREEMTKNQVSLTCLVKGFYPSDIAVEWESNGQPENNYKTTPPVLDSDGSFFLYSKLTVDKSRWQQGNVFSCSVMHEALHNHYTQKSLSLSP
light: B1 light with G41R, Q42K
notes: copies: 2 + 2
B26: Ab1H/Ab1L018 (antibody, human IgG1, kappa)
heavy: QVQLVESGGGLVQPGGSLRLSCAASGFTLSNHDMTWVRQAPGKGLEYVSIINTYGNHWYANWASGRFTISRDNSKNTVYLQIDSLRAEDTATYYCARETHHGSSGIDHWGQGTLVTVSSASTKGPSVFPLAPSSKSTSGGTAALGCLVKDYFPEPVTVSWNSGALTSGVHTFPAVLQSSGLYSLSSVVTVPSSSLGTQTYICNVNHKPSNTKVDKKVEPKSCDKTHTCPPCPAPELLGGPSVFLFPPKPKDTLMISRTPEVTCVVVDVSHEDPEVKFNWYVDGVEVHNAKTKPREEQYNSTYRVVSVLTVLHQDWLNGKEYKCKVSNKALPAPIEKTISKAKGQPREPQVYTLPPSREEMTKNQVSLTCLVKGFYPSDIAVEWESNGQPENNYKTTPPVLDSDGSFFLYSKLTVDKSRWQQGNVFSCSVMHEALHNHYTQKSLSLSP
light: B1 light with Q24R, E27R, L46R, Y49K
notes: copies: 2 + 2
B27: Ab1H/Ab1L012 (antibody, human IgG1, kappa)
heavy: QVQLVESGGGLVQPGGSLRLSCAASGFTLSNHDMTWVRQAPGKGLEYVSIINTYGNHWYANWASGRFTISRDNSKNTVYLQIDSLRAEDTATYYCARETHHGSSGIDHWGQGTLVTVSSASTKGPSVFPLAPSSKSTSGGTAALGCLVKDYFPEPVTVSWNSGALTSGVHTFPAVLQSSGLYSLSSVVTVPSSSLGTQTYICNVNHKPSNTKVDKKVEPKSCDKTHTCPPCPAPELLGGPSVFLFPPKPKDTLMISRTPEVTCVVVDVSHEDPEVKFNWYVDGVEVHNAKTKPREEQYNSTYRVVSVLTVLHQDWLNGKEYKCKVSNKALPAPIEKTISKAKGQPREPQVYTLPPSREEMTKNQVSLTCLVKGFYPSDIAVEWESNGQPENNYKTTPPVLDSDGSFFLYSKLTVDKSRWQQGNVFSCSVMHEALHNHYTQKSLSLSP
light: B1 light with S65R, T69R
notes: copies: 2 + 2
B28: Ab1H/Ab1L003 (antibody, human IgG1, kappa)
heavy: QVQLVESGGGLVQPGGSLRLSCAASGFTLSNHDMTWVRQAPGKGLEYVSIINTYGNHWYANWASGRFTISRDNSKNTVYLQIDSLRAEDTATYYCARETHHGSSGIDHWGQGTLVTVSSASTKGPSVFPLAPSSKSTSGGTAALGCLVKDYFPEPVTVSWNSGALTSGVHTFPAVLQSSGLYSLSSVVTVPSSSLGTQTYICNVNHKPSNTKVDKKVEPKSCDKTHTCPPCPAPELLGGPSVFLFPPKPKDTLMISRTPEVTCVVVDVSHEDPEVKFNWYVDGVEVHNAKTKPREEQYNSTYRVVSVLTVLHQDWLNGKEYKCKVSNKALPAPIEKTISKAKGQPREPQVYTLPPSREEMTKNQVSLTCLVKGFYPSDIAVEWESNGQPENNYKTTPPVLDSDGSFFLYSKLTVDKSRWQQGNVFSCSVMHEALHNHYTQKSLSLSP
light: B1 light with Q24R, E27R
notes: copies: 2 + 2
B29: Ab1H/Ab1L005 (antibody, human IgG1, kappa)
heavy: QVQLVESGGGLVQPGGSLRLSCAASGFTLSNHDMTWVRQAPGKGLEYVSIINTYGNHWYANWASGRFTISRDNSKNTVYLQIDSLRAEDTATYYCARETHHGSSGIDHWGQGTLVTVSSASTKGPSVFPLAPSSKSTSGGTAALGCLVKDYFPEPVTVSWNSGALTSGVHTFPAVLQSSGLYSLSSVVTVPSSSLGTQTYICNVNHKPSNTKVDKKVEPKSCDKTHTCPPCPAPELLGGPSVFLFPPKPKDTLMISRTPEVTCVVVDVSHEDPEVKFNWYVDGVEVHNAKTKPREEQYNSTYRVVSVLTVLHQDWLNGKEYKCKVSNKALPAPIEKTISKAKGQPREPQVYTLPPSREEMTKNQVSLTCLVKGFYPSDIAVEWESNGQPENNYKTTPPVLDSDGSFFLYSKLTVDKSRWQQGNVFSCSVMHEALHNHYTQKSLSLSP
light: B1 light with A25K, S26K
notes: '526K' read as S26K; copies: 2 + 2
B30: Ab1H/Ab1L014 (antibody, human IgG1, kappa)
heavy: not shown
light: B1 light with S76R, Q79K
notes: copies: 2 + 2
B31: Ab1H/Ab1L011 (antibody, human IgG1, kappa)
heavy: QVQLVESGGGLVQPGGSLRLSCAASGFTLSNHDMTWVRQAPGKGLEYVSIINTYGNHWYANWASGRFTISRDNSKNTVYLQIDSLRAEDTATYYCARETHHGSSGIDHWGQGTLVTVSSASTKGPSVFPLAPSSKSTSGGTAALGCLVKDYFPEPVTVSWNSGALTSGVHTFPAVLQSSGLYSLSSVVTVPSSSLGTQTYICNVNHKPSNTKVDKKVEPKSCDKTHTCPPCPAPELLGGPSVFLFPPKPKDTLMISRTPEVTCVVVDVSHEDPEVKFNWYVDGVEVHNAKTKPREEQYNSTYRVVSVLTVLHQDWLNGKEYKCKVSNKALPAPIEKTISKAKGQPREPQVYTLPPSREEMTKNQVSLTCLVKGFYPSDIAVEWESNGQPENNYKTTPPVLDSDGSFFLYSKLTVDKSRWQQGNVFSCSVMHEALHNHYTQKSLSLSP
light: B1 light with S52K, S56K
notes: copies: 2 + 2
B32: Ab1H/Ab1L004 (antibody, human IgG1, kappa)
heavy: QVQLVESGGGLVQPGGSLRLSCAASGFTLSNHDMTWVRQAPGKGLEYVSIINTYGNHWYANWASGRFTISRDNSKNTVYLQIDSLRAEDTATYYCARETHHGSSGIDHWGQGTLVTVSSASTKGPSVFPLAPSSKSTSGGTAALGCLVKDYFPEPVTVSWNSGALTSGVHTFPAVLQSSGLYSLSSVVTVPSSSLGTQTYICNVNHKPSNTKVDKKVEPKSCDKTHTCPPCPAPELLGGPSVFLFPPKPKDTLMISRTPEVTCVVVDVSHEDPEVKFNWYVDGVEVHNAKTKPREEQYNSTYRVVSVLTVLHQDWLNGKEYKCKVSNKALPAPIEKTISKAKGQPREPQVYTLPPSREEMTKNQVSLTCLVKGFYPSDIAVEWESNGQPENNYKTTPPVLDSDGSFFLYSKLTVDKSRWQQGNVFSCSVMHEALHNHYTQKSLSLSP
light: B1 light with Q24K, E27K
notes: copies: 2 + 2
B33: Ab1H/Ab1L016 (antibody, human IgG1, kappa)
heavy: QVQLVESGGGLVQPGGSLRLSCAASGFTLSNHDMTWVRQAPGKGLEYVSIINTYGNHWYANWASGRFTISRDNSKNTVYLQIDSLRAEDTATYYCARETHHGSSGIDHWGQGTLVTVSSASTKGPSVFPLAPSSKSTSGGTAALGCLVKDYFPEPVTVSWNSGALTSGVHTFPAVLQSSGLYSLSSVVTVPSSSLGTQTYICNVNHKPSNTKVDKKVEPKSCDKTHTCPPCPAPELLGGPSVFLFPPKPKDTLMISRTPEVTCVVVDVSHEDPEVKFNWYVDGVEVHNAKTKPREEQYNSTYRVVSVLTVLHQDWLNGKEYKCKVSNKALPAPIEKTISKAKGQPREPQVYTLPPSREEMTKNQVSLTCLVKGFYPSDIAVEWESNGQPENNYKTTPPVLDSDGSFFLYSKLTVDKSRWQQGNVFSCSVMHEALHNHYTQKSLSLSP
light: B1 light with Q24R, E27R, Q37R
notes: copies: 2 + 2
B34: Ab1H/Ab1L010 (antibody, human IgG1, kappa)
heavy: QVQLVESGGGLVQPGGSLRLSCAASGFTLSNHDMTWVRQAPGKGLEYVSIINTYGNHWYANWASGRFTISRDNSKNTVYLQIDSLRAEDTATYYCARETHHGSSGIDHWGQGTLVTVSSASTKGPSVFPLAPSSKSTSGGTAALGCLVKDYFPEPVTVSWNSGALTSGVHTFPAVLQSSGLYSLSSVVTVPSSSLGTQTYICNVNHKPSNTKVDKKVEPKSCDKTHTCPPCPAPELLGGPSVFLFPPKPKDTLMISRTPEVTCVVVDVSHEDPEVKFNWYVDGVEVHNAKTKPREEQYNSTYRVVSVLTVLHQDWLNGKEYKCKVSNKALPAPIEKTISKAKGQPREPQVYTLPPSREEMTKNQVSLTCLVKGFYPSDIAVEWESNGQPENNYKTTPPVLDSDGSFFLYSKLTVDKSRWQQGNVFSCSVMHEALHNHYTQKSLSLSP
light: B1 light with S52R, S56R
notes: copies: 2 + 2

One assay has as its target T1, soluble human FcγRIIb. Briefly: SPR, Ab-IgE complex over captured hFcγRIIb, pH 7.4, 25C. How it is done:
Fc region variant-containing antibody binding assays between soluble human FcγRIIb (a.k.a. “hFcγRIIb”) and antigen-antibody complexes were performed using BIACORE® T200 (GE Healthcare). Soluble hFcγRIIb was produced in the form of a His-tagged molecule using methods known in the art. An appropriate amount of an anti-His antibody was fixed onto Sensor chip CM5 (GE Healthcare) by the amine coupling method using a His capture kit (GE Healthcare) to capture hFcγRIIb. Next, an antibody-antigen complex and a running buffer (as a reference solution) was injected, and interaction was allowed to take place with the hFcγRIIb captured onto the sensor chip. 20 mM N-(2-Acetamido)-2-aminoethanesulfonic acid, 150 mM NaCl, 1.2 mM CaCl₂, and 0.05% (w/v) Tween 20 at pH 7.4 was used as the running buffer, and the respective buffer was also used to dilute the soluble hFcγRIIb. To regenerate the sensor chip, 10 mM glycine-HCl at pH 1.5 was used. All measurements were carried out at 25° C. Analyses were performed based on binding (RU) calculated from sensorgrains obtained by the measurements, and relative values when the binding amount of P600 was defined as 1.00 are shown. To calculate the parameters, the BIACORE® T100 Evaluation Software (GE Healthcare) was used.
B1: the “relative binding (RU), P600=1.00” value was determined as 0.25 fold.

Turning to B2, the “relative binding (RU), P600=1.00” value came out at 1.54 fold.

As to B3, the “relative binding (RU), P600=1.00” value is -0.06 fold.

For the molecule B4, the “relative binding (RU), P600=1.00” value worked out at 0.47 fold.

For B5, the “relative binding (RU), P600=1.00” value is -0.07 fold.

On to B6, for which the “relative binding (RU), P600=1.00” value was determined as 0.47 fold.

With B7, the “relative binding (RU), P600=1.00” value stood at 1.38 fold.

Consider B8, for which the “relative binding (RU), P600=1.00” value was -0.05 fold.

As for B9, the “relative binding (RU), P600=1.00” value came to 0.21 fold.

As for B10, the “relative binding (RU), P600=1.00” value was -0.07 fold.

Consider B11, for which the “relative binding (RU), P600=1.00” value worked out at 0.68 fold.

Regarding B12, the “relative binding (RU), P600=1.00” value is -0.06 fold.

Consider B13, for which the “relative binding (RU), P600=1.00” value stood at 0.2 fold.

In the next assay the target is T1, soluble human FcγRIIb. The assay is described as above. The source holds these as a separate data set. On the procedure:
Regarding the produced Fc region variant-containing antibodies, binding assays between soluble human FcγRIIb and antigen-antibody complexes were performed using BIACORE T200 (GE Healthcare). Soluble human FcγRIIb (NCBI accession NM_004001.3) was produced in the form of a His-tagged molecule by a method known in the art. An appropriate amount of an anti-His antibody was fixed onto Sensor chip CM5 (GE Healthcare) by the amine coupling method using a His capture kit (GE Healthcare) to capture human FcγRIIb. Next, an antibody-antigen complex and a running buffer (as a reference solution) were injected, and interaction was allowed to take place with the human FcγRIIb captured onto the sensor chip. 20 mM N-(2-Acetamido)-2-aminoethanesulfonic acid, 150 mM NaCl, 1.2 mM CaCl₂, and 0.05% (w/v) Tween 20 at pH 7.4 was used as the running buffer, and the respective buffer was also used to dilute the soluble human FcγRIIb. To regenerate the sensor chip, 10 mM glycine-HCl at pH 1.5 was used. All measurements were carried out at 25° C. Analyses were performed based on binding (RU) calculated from sensorgrams obtained by the measurements, and relative values when the binding amount of Ab1H/Ab1L (original Ab1) was defined as 1.00 are shown. To calculate the parameters, the BIACORE T100 Evaluation Software (GE Healthcare) was used.
Turning to B14, the “BIACORE fold (relative binding, original Ab1=1.00)” value is -0.02 fold.

Regarding B15, the “BIACORE fold (relative binding, original Ab1=1.00)” value worked out at 1.27 fold.

For the molecule B16, the “BIACORE fold (relative binding, original Ab1=1.00)” value was 1.25 fold.

As to B17, the “BIACORE fold (relative binding, original Ab1=1.00)” value amounted to 1.06 fold.

On to B18, for which the “BIACORE fold (relative binding, original Ab1=1.00)” value was found to be 1.18 fold.

Take B19: the “BIACORE fold (relative binding, original Ab1=1.00)” value amounted to 1.03 fold.

Turning to B20, the “BIACORE fold (relative binding, original Ab1=1.00)” value came out at 1.17 fold.

B21: the “BIACORE fold (relative binding, original Ab1=1.00)” value worked out at 1.22 fold.

Turning to B22, the “BIACORE fold (relative binding, original Ab1=1.00)” value is 1.03 fold.

In the case of B23, the “BIACORE fold (relative binding, original Ab1=1.00)” value turned out to be 1.36 fold.

Regarding B24, the “BIACORE fold (relative binding, original Ab1=1.00)” value is 1.7 fold.

Regarding B25, the “BIACORE fold (relative binding, original Ab1=1.00)” value came to 1.07 fold.

As for B26, the “BIACORE fold (relative binding, original Ab1=1.00)” value was determined as 0.07 fold.

For the molecule B27, the “BIACORE fold (relative binding, original Ab1=1.00)” value came to 0.97 fold.

Take B28: the “BIACORE fold (relative binding, original Ab1=1.00)” value was determined as 1.09 fold.

Take B29: the “BIACORE fold (relative binding, original Ab1=1.00)” value turned out to be 0.84 fold.

For the molecule B30, the “BIACORE fold (relative binding, original Ab1=1.00)” value was found to be 1.08 fold.

As to B31, the “BIACORE fold (relative binding, original Ab1=1.00)” value was 1.02 fold.

For the molecule B32, the “BIACORE fold (relative binding, original Ab1=1.00)” value is 1.01 fold.

For the molecule B33, the “BIACORE fold (relative binding, original Ab1=1.00)” value was 1.36 fold.

Take B34: the “BIACORE fold (relative binding, original Ab1=1.00)” value came to 0.98 fold.
